Measured values as given in the Immune Epitope Database (IEDB).

What was measured:
HLA-A*26:01 = assay: IEDB peptide-MHC binding, purified MHC/competitive/fluorescence; filed as Kd, often an IC50 or EC50 that approximates it; ≥ and ≤ were set here for values at or beyond the usual limits of such assays
HLA-B*15:17 = assay: as above
HLA-B*51:01 = assay: as above
HLA-B*27:03 = assay: as above
HLA-A*23:01 [1] = assay: IEDB peptide-MHC binding, purified MHC/direct/fluorescence; filed as Kd, often an IC50 or EC50 that approximates it; ≥ and ≤ were set here for values at or beyond the usual limits of such assays; conditions: source organism: Zaire ebolavirus
HLA-B*07:02 = assay: as above; conditions: source organism: Ebola virus - Gabon (1994-1997)
HLA-B*27:05 = assay: as above; conditions: source organism: Ebola virus - Gabon (1994-1997)
HLA-A*68:02 [2] = assay: as above; conditions: source organism: Zaire ebolavirus
HLA-B*39:01 [3] = assay: as above; conditions: source organism: Ebola virus - Gabon (1994-1997)
HLA-B*57:01 [4] = assay: as above; conditions: source organism: Ebola virus - Gabon (1994-1997)
HLA-A*02:12 [5] = assay: as above; conditions: source organism: Zaire ebolavirus
HLA-A*01:01 [6] = assay: as above; conditions: source organism: Ebola virus - Gabon (1994-1997)
HLA-B*15:01 [7] = assay: as above; conditions: source organism: Ebola virus - Gabon (1994-1997)
HLA-A*69:01 = assay: as above; conditions: source organism: Ebola virus - Gabon (1994-1997)
HLA-A*24:03 [8] = assay: as above; conditions: source organism: Zaire ebolavirus
HLA-B*44:02 = assay: as above; conditions: source organism: Ebola virus - Gabon (1994-1997)
HLA-A*29:02 [9] = assay: as above; conditions: source organism: Ebola virus - Gabon (1994-1997)
HLA-B*18:01 [10] = assay: as above; conditions: source organism: Ebola virus - Gabon (1994-1997)
HLA-A*02:01 [11] = assay: as above; conditions: source organism: Ebola virus - Gabon (1994-1997)
HLA-B*58:01 [12] = assay: as above; conditions: source organism: Ebola virus - Gabon (1994-1997)
HLA-B*40:01 = assay: as above; conditions: source organism: Ebola virus - Gabon (1994-1997)
HLA-B*46:01 [13] = assay: as above; conditions: source organism: Ebola virus - Gabon (1994-1997)
HLA-A*11:01 [14] = assay: as above; conditions: source organism: Ebola virus - Gabon (1994-1997)
HLA-A*03:01 [15] = assay: as above; conditions: source organism: Ebola virus - Gabon (1994-1997)
HLA-A*23:01 [16] = assay: IEDB peptide-MHC binding, purified MHC/competitive/fluorescence; filed as Kd, often an IC50 or EC50 that approximates it; ≥ and ≤ were set here for values at or beyond the usual limits of such assays
HLA-B*39:01 [17] = assay: as above
HLA-B*57:01 [18] = assay: as above
HLA-A*02:12 [19] = assay: as above; conditions: source organism: Listeria welshimeri serovar 6b str. SLCC5334
HLA-B*15:01 [20] = assay: as above
HLA-A*24:03 [21] = assay: as above
HLA-A*29:02 [22] = assay: as above
HLA-B*18:01 [23] = assay: as above
HLA-A*02:01 [24] = assay: as above
HLA-B*46:01 [25] = assay: as above
HLA-A*02:19 = assay: as above
HLA-A*03:01 [26] = assay: as above
HLA-A*01:01 [27] = assay: IEDB peptide-MHC binding, purified MHC/competitive/fluorescence; ≥ and ≤ were set here for values at or beyond the usual limits of such assays
HLA-A*11:01 [28] = assay: as above; conditions: source organism: Vaccinia virus
HLA-B*57:01 [29] = assay: IEDB peptide-MHC binding, purified MHC/competitive/radioactivity; filed as Kd, often an IC50 or EC50 that approximates it; ≥ and ≤ were set here for values at or beyond the usual limits of such assays
HLA-B*58:01 [30] = assay: as above
HLA-A*68:02 [31] = assay: as above; conditions: source organism: Dengue virus 4 Philippines/H241/1956
HLA-B*53:01 = assay: as above; conditions: source organism: Dengue virus 4 Philippines/H241/1956
HLA-A*32:01 = assay: as above
HLA-A*01:01 [32] = assay: as above; conditions: source organism: Dengue virus 2 Jamaica/1409/1983
HLA-A*02:01 [33] = assay: IEDB peptide-MHC binding, purified MHC/competitive/fluorescence; ≥ and ≤ were set here for values at or beyond the usual limits of such assays; conditions: source organism: Sudan ebolavirus
[34] = source organism: Zaire ebolavirus
[35] = source organism: Listeria welshimeri serovar 6b str. SLCC5334
[36] = source organism: Dengue virus 4 Philippines/H241/1956
[37] = source organism: Shigella boydii CDC 3083-94
[38] = source organism: Dengue virus 3 Martinique/1243/1999
[39] = source organism: Dengue virus 2 Jamaica/1409/1983

With AKATGRYNL as the sequence, how does the Kd (HLA-A*26:01; [34]) read?
The Kd was at least 20 µM.

And the Kd (HLA-B*15:17; [34])?
The Kd was at least 20 µM.

What about the Kd (HLA-B*51:01; [34]) of the same sequence?
Its Kd is at least 20 µM.

And the Kd (HLA-B*27:03; [34])?
Its Kd is at least 20 µM.

What about the Kd (HLA-A*23:01 [1]) of the same sequence?
The Kd was at least 20 µM.

What about the Kd (HLA-B*07:02) of the same sequence?
Its Kd is at least 20 µM.

And the Kd (HLA-B*27:05)?
Its Kd is at least 20 µM.

And the Kd (HLA-A*68:02 [2])?
Its Kd is at least 20 µM.

And the Kd (HLA-B*39:01 [3])?
The Kd was 0.78 µM.

What about the Kd (HLA-B*57:01 [4]) of the same sequence?
The Kd was at least 20 µM.

What about the Kd (HLA-A*02:12 [5]) of the same sequence?
Its Kd is at least 20 µM.

What about the Kd (HLA-A*01:01 [6]) of the same sequence?
Its Kd is at least 20 µM.

What about the Kd (HLA-B*15:01 [7]) of the same sequence?
The Kd was at least 20 µM.

And the Kd (HLA-A*69:01)?
The Kd was at least 20 µM.

And the Kd (HLA-A*24:03 [8])?
Its Kd is at least 20 µM.

And the Kd (HLA-B*44:02)?
The Kd was at least 20 µM.

What about the Kd (HLA-A*29:02 [9]) of the same sequence?
Its Kd is at least 20 µM.

And the Kd (HLA-B*18:01 [10])?
Its Kd is at least 20 µM.

What about the Kd (HLA-A*02:01 [11]) of the same sequence?
Its Kd is at least 20 µM.

What about the Kd (HLA-B*58:01 [12]) of the same sequence?
The Kd was at least 20 µM.

And the Kd (HLA-B*40:01)?
Its Kd is at least 20 µM.

What about the Kd (HLA-B*46:01 [13]) of the same sequence?
Its Kd is at least 20 µM.

And the Kd (HLA-A*11:01 [14])?
The Kd was at least 20 µM.

What about the Kd (HLA-A*03:01 [15]) of the same sequence?
The Kd was at least 20 µM.

For ELYENKPDV, which Kd (HLA-A*23:01 [16]; [35]) is on record?
Its Kd is at least 20 µM.

And the Kd (HLA-A*26:01; [35])?
The Kd was at least 20 µM.

And the Kd (HLA-B*39:01 [17]; [35])?
Its Kd is at least 20 µM.

And the Kd (HLA-B*57:01 [18]; [35])?
The Kd was at least 20 µM.

What about the Kd (HLA-A*02:12 [19]) of the same sequence?
Its Kd is at least 20 µM.

And the Kd (HLA-B*15:01 [20]; [35])?
Its Kd is at least 20 µM.

What about the Kd (HLA-A*24:03 [21]; [35]) of the same sequence?
Its Kd is at least 20 µM.

And the Kd (HLA-A*29:02 [22]; [35])?
The Kd was at least 20 µM.

And the Kd (HLA-B*18:01 [23]; [35])?
The Kd was at least 20 µM.

What about the Kd (HLA-A*02:01 [24]; [35]) of the same sequence?
Its Kd is 0.515 µM.

And the Kd (HLA-B*51:01; [35])?
Its Kd is at least 20 µM.

And the Kd (HLA-B*46:01 [25]; [35])?
Its Kd is at least 20 µM.

And the Kd (HLA-A*02:19; [35])?
The Kd was 0.303 µM.

What about the Kd (HLA-B*27:03; [35]) of the same sequence?
The Kd was at least 20 µM.

What about the Kd (HLA-A*03:01 [26]; [35]) of the same sequence?
The Kd was at least 20 µM.

GTEKEFLRY was tested. Which IC50 (HLA-A*01:01 [27]; source organism: Vaccinia virus) did it give?
The IC50 was 6.64 µM.

And the IC50 (HLA-A*11:01 [28])?
Its IC50 is 11.5 µM.

IGLSSRATW was tested. Which Kd (HLA-B*57:01 [29]; [36]) did it give?
The Kd was 0.0481 µM.

And the Kd (HLA-B*58:01 [30]; [36])?
The Kd was 0.00663 µM.

Which Kd (HLA-A*68:02 [31]) does the source give for LASMAICSAV here?
Its Kd is 0.0262 µM.

What about the Kd (HLA-B*57:01 [29]; [36]) of the same sequence?
Its Kd is at least 21.9 µM.

What about the Kd (HLA-B*58:01 [30]; [36]) of the same sequence?
Its Kd is 0.586 µM.

Which Kd (HLA-A*23:01 [16]; [37]) does the source give for MAMTGLPQA here?
The Kd was at least 20 µM.

What about the Kd (HLA-A*26:01; [37]) of the same sequence?
Its Kd is at least 20 µM.

And the Kd (HLA-B*39:01 [17]; [37])?
The Kd was at least 20 µM.

What about the Kd (HLA-B*57:01 [18]; [37]) of the same sequence?
Its Kd is at least 20 µM.

And the Kd (HLA-B*15:01 [20]; [37])?
The Kd was at least 20 µM.

What about the Kd (HLA-A*24:03 [21]; [37]) of the same sequence?
The Kd was at least 20 µM.

What about the Kd (HLA-A*29:02 [22]; [37]) of the same sequence?
The Kd was at least 20 µM.

And the Kd (HLA-B*18:01 [23]; [37])?
The Kd was at least 20 µM.

And the Kd (HLA-A*02:01 [24]; [37])?
The Kd was 0.0008 µM.

And the Kd (HLA-B*15:17; [37])?
The Kd was at least 20 µM.

And the Kd (HLA-B*46:01 [25]; [37])?
The Kd was at least 20 µM.

And the Kd (HLA-A*02:19; [37])?
Its Kd is 0.0003 µM.

And the Kd (HLA-B*27:03; [37])?
Its Kd is at least 20 µM.

What about the Kd (HLA-A*03:01 [26]; [37]) of the same sequence?
Its Kd is at least 20 µM.

With MVMTTTANW as the sequence, how does the Kd (HLA-B*53:01) read?
Its Kd is 0.00345 µM.

What about the Kd (HLA-B*57:01 [29]; [36]) of the same sequence?
The Kd was 0.011 µM.

What about the Kd (HLA-B*58:01 [30]; [36]) of the same sequence?
The Kd was 0.0162 µM.

And the Kd (HLA-A*32:01; [36])?
Its Kd is 0.0263 µM.

How did the Kd (HLA-B*57:01 [29]; [38]) turn out when NSSFIIDGPN was run?
The Kd was 0.142 µM.

What about the Kd (HLA-B*58:01 [30]; [38]) of the same sequence?
Its Kd is 0.00543 µM.

Which Kd (HLA-B*57:01 [29]; [39]) does the source give for RVWIQENPW here?
The Kd was 0.00787 µM.

What about the Kd (HLA-B*58:01 [30]; [39]) of the same sequence?
Its Kd is 0.0034 µM.

And the Kd (HLA-A*32:01; [39])?
Its Kd is 0.0224 µM.

Which Kd (HLA-B*57:01 [29]; [39]) does the source give for STSLSVSLVL here?
The Kd was 0.667 µM.

And the Kd (HLA-A*01:01 [32])?
The Kd was 12 µM.

How did the Kd (HLA-B*57:01 [29]; [39]) turn out when TASGKLITEW was run?
Its Kd is 0.0497 µM.

What about the Kd (HLA-B*58:01 [30]; [39]) of the same sequence?
Its Kd is 0.163 µM.

For VTEIDQLVC, which IC50 (HLA-A*01:01 [27]; source organism: Sudan ebolavirus) is on record?
Its IC50 is 34.2 µM.

And the IC50 (HLA-A*02:01 [33])?
The IC50 was at least 322 µM.
